The values that follow come from patent CN1903878A (UNIV FUDAN, dated 2007).

This assay deals with T1, 重组冠状病毒S蛋白 (SARS冠状病毒棘突蛋白部分片段, 氨基酸位点257~573) (SARS冠状病毒, UniProt P59594 257-573).
T1 construct: range 257-573; also called 重组S蛋白; 重组抗原S蛋白
In words: SPR (Biacore 3000), recombinant S protein immobilised, Fab at 2.5-0.3125 μg/ml.

B1: 抗冠状病毒人源性基因工程抗体Fab片段AS3-3 (Fab, V domains shown)
VH: EVKLVESGGGVVQPGRSLRLSCAASGFRFSTYAIHWVRQAPGKGLEWVARISHDGSQTHYADSVQGRFGVSRDNSNYTAYVQLNSLRPDDTAVYFCARAYSSTPDYGMDVWGQGTAVTVSS
VL: EIVMTQSPLSPVTLGQPASISCKSSQSLVDTNGNTYLIWFHQRPGQSPRRLIYQVSKRDSGVPDRFSGSGTDFTLKISRVEAEDVGVYFCMQGTYRPPTLGQGTKVEIKR
notes: also called 阳性克隆AS3-3; 抗SARS病毒人源性抗体IgG Fab片段
By Kd is commonly meant the concentration at which binding is half-saturated. Broadly, the koff is the rate constant with which the complex falls apart. One may read the kon as the second-order rate constant of association. Consider B1, for which the Ka was determined as 5.05e+07 M⁻¹, the Kd came to 19.8 nM, the koff came to 0.00306 s⁻¹ and the kon was found to be 154000 M⁻¹ s⁻¹.
